Test [1] has as its target cytochrome f (Cytf, PetA), His-tagged, in the isolated cytochrome b6f complex (C. reinhardtii) (UniProt P23577).
Test [2] has as its target T1, cytochrome f (Cytf, PetA), His-tagged, in the isolated cytochrome b6f complex (C. reinhardtii, UniProt P23577 32-317).
T1 construct: cytochrome f (PetA) of C. reinhardtii, UniProt P23577; numbers count on: the mature protein (Y32 of P23577 = Y1); Stood in every assay as a subunit of the whole isolated Cytb6f complex, not as an isolated protein; Carries heme f; also called Cytb6f (as the subunit cross-linked); source: C. reinhardtii strain expressing His-tagged PetA; Cytb6f complex purified (tPCCαM solubilisation, NiNTA, …)
As to the kind of experiment: cross-linking; PC (100 µM) preactivated with 5 mM EDC and 10 mM NHS, pH 6.5 (MOPS), 20 min at room temperature; 5 mM ferricyanide added and cross-linker removed; added to isolated Cytb6f (2.7 µM) pre-reduced with 5 mM ascorbate; HEPES 30 mM pH 7.5, MgCl2, tPCCαM; 45 min at room temperature; read by SDS-PAGE (Coomassie, anti-Cytf blot) and by trypsin digestion with LC-MS/MS (MaxQuant and xiSEARCH). Conditions: both partners purified.

Where a chain is given by its changes, count along the chain named. In names and notes the source's numbering stands.

T1 sequence (P23577 32-317, one chain of several): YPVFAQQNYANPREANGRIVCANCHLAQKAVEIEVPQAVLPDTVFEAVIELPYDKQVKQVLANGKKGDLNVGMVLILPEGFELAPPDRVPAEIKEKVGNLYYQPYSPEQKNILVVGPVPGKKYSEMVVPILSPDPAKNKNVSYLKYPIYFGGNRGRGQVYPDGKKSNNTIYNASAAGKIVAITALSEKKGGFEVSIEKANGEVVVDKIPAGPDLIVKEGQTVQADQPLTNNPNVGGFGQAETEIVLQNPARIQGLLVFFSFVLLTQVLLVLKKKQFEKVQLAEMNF
Chain of cytochrome f (Cytf, PetA), His-tagged, in the isolated cytochrome b6f complex (C. reinhardtii) (P23577 32-317, one chain of several): as above

B1: plastocyanin (PC) S49D, recombinant phosphomimetic variant (natural protein)
chain: DATVKLGADSGALEFVPKTLTIKSGETVNFVNNAGFPHNIVFDEDAIPDGVNADAISRDDYLNAPGETYSVKLTAAGEYGYYCEPHQGAGMVGKIIVQ
Molecule B1 had a half-time of Cytf oxidation in the light (absorbance at 554 nm), isolated Cytb6f and PSI, 1 to 3 µM PC, 5 µM FDX in test [1] of 120 ms.

B2: plastocyanin (PC) S49K, recombinant (natural protein, C. reinhardtii)
chain: B1 chain with D49K
notes: plastocyanin of C. reinhardtii, UniProt P18068, with a point mutation S49K that adds a trypsin site; numbers count on: the mature protein (D48 of P18068 = D1); S49 is S96 in P18068 by the printed offset; Made from the WT Pet17b-PETE plasmid; the methods list codons only for S-to-A, S-to-E and S-to-D; also called mutated S49K PC; source: E. coli, recombinant (as the wild type PC)
Consider B2, for which the binding result in test [2] is “binds”.

Source of the values: paper PMC12341890, “Insights into plastocyanin–cytochrome b6f complex formation: The role of plastocyanin phosphorylation” (Plant Physiology, 2025).
